Measured values reported in patent US6492131B1, “Class I-type lysyl-TRNA synthetase” (Yale University, priority 1997, dated 2002).

Substrate: NCCCC[C@H](N)C(=O)O
Assay: Kinetic characterization of LysRS: aminoacylation of M. maripaludis total tRNA with lysine
Format: biochemical, Methanococcus maripaludis
Conditions: other: purified native LysRS 5 nM, 37° C., pH 7.2
Text: To investigate the formation of Lys-tRNA in cell-free extracts prepared from M. maripaludis, (^14C) lysine and homologous total TRNA were used as substrates (6). […] This was confirmed by the observation that (^14C)Lys-tRNA synthesis was inhibited by only one of the 20 canonical amino acids, lysine (FIG. 1). This is consistent with the presence of LysRS, since Lys-tRNA synthesis via a mischarged tRNA would result in a non-labeled amino acid other than lysine being able to inhibit lysylation of tRNA. On the basis of these observations LysRS from M. maripaludis was purified. By standard chromatographic procedures (8), a single 62-kD protein was isolated, which was purified to homogeneity as judged by both silver staining after denaturing polyacrylamide gel electrophoresis (SDS-PAGE) and the appearance of a single symmetrical peak during size exclusion chromatography. […] The enzyme could acylate unfractionated tRNA with lysine to the same degree as the M. maripaludis crude extract (FIG. 1), confirming that the purified protein is LysRS. […] These modified nucleotides have previously been detected at position 34 in all known tRNA^Glu and tRNA^Lys isoacceptors (13).
6. […]
9. […] Sampling and quantification were as described (K. -W. Hong et al., EMBO J. 15, 1983 (1996)).

B1: M. maripaludis LysRS (Methanococcus maripaludis) (protein)
chain: MHWADATSEKIMKKRNAEEYVVSSGITPSGHIHIGNARETLTADAVYKGMLKKGAEAKLIFIADDYDPLRKLYPFLPKEFEKYIGMPLSEIPCPQGCCKSYADHFLMPFLNSLEDLGVEITTHRANECYKAGMYNEAIITALENRLKIKELLDSYRKEPLADNWYPLNVVCEKCGKMHETKVTSYNSEDKTITYVCKCGFENTVQPFNGIGKLPWRVDWPARWNIFGVTAEPMGKDHAASGGSYDTGIKIARQIFNYQAPEKMVYEWIQLKIGDKAMPMSSSSGVVFAVKDWTEICHPEVLRFLILKGKPTKHIDFDLKAISNLVDDYDELERKYFELIEKQKTEELNDNENEKISLYELVTPKIPERLPLQVAYRFCSIIAQIALDKETQKIDMERVFDILGRNGYNPAEFSEYDKSRLEKRLYMSKKWASDYGENLEINDFEQAKEQYETLSEEQKAWLKAFSKEVENIEIDANTIHELMYETATKLNLAPKEAFVASYKILLGKNYGPKLGSFLASLKKEFVIGRFNLTE
Q: How did the Km turn out when B1 was run?
A: 2.2 µM

Q: What about the kcat of the same protein?
A: 1.6 s⁻¹
